Measurements taken from patent US20140235820A1, “METHODS AND COMPOSITIONS FOR MODULATING THE Wnt PATHWAY” (Genentech, Inc., priority 2010, published 2014).
Residue numbers refer to the chain shown, from its start. One block for each binder: values may come before it.

What was measured:
[1] = molecular target: T1, human LRP6 construct E1 (amino acids A20-D325) (human, UniProt O75581 20-325); test: synthetic peptides, competition IC50 (FIG. 17A)
T1 construct: range 20-325; In the Fab crystal E1 arose from E1E2 degraded beyond Arg 335; residues Ala20 to Lys324 were traced; also called LRP6 E1; E1 domain
T1 sequence (looked up): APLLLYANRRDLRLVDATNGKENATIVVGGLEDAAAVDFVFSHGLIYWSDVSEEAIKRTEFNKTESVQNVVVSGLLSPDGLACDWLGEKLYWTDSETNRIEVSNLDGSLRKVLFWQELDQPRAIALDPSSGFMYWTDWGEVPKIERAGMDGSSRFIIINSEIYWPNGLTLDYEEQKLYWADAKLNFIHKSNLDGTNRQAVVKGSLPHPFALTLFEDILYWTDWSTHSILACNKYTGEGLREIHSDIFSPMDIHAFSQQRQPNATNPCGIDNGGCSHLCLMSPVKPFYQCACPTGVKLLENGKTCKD

[2] = molecular target: T2, human LRP6 construct E1E2 (amino acids A20-E631) (human, UniProt O75581 20-631, biotinylated for biolayer interferometry); test: BLI (Octet Red), biotinylated LRP6 on streptavidin tips, steady state
T2 construct: range 20-631; also called LRP6 E1E2
T2 sequence (looked up): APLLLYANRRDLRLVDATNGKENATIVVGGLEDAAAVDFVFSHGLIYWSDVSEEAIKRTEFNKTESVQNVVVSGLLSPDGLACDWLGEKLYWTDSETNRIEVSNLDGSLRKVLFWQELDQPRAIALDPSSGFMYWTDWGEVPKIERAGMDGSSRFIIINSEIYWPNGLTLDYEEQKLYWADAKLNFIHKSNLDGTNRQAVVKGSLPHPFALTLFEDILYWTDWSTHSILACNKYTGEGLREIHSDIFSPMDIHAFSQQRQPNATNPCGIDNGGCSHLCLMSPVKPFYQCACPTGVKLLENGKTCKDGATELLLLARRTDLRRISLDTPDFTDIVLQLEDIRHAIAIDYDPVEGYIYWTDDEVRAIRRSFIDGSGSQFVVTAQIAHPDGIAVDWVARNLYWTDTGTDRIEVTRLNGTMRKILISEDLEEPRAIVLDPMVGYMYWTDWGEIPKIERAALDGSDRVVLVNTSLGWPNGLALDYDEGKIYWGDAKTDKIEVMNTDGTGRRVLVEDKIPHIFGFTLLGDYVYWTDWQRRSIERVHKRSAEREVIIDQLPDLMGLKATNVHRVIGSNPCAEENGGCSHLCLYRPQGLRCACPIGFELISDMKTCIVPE
Procedure: (§1) Binding kinetics were measured by biolayer interferometry using an Octet Red instrument (ForteBio) as previously described (11). Streptavidin (SA) biosensors were loaded with biotinylated hLRP6 in 50 mMTris, pH 8, 300 mM NaCl, 5% (v/v) glycerol, and 0.05% (w/v) Triton X-100. The loaded biosensors were washed in the same buffer before carrying out association and dissociation measurements for the indicated times. The Kd of each interaction was determined using steady state-analysis through the Octet Red software v6.3. Each reported value represents an average of three or more experiments at different concentrations, with a fitted experimental curve for which the square of the correlation coefficient (R²) is above 0.96.

[3] = molecular target: T3, human LRP6 construct E3E4 (amino acids E631-Q1253) (human, UniProt O75581 631-1253, biotinylated for biolayer interferometry); test: as above
T3 construct: range 631-1253; also called LRP6 E3E4
T3 sequence (looked up): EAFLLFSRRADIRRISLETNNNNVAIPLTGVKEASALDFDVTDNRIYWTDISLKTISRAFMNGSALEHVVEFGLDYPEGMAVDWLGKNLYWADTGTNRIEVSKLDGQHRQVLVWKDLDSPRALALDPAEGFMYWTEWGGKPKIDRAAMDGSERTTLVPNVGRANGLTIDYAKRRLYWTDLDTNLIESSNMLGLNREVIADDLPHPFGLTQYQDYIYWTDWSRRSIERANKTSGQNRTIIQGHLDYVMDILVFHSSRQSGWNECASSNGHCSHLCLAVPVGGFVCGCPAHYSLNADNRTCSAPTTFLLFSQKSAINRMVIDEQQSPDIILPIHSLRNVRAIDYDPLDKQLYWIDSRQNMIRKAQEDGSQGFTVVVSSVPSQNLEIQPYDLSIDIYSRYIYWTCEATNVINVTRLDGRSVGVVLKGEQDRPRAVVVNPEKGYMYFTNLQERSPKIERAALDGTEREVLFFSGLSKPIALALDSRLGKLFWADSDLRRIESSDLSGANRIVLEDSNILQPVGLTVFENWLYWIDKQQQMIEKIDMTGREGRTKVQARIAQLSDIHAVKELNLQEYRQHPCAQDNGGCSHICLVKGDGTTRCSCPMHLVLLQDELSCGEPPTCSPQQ
Procedure: as §1

[4] = molecular target: T4, human LRP6 construct E4 (T933-Q1253) (human, UniProt O75581 933-1253, biotinylated for biolayer interferometry); test: BLI, biotinylated LRP6 on streptavidin tips
T4 construct: range 933-1253; also called LRP6 E4
T4 sequence (looked up): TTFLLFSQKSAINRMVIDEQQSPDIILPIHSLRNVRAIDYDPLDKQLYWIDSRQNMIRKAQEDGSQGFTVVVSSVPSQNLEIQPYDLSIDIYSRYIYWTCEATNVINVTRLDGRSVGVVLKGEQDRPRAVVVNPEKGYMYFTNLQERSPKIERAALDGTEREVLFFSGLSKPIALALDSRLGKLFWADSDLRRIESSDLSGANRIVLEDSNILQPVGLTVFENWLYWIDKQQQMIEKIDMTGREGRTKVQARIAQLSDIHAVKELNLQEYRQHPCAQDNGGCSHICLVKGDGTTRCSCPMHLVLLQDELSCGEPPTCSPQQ
Procedure: as §1
Purified receptors contained individual β-propeller-EGF-like units (E1, E2, or E4), two β-propellers (E1E2 or E3E4), or four β-propellers (E1E4))—as follows: […]

LRP6 E1E2 Asn185Ser = molecular target: T5, LRP6 E1E2 Asn185Ser (human, UniProt O75581 20-631); test: BLI steady-state affinity
T5 construct: range 20-631; also called LRP6 E1E2 N185S (analogue of LRP5 BMD mutation Asn198Ser)
T5 sequence (looked up): T2 sequence (looked up) with N166S
Procedure: as §1

LRP6 E1E2 Arg141Met = molecular target: T6, LRP6 E1E2 Arg141Met (human, UniProt O75581 20-631); test: BLI steady-state affinity
T6 construct: range 20-631; also called LRP6 E1E2 R141M
T6 sequence (looked up): T2 sequence (looked up) with R122M
Procedure: as §1

binding result [1]: no binding
Binder: AIKN [Dkk1 peptide lacking three residues from the N-terminus]

binding result [1]: no binding
Binder: NSNA [Dkk1 peptide lacking three residues from the C-terminus]

Kd [2]: 22 nM
Kd [3]: 51 nM
binding result [4]: no binding
fold loss in affinity against wild-type LRP6 E1E2 (LRP6 E1E2 Asn185Ser): 183 fold
fold loss in affinity against wild-type LRP6 E1E2 (LRP6 E1E2 Arg141Met): 29 fold
B1: Dkk1 (wild type) (ligand, human, UniProt O94907 32-266, looked up)
chain: TLNSVLNSNAIKNLPPPLGGAAGHPGSAVSAAPGILYPGGNKYQTIDNYQPYPCAEDEECGTDEYCASPTRGGDAGVQICLACRKRRKRCMRHAMCCPGNYCKNGICVSSDQNHFRGEIEETITESFGNDHSTLDGYSRRTTLSSKMYHTKGQEGSVCLRSSDCASGLCCARHFWSKICKPVLKEGQVCTKHRRKGSHGLEIFQRCYCGEGLSCRIQKDHHQASNSSRLHTCQRH
notes: also called Dickkopf 1; human Dkk1
